From patent US20110152500A1 come the findings set out here.

Assay [1] addresses VCAM1-Trx (human) (UniProt P19320). Briefly: SPR (Biacore), synthetic peptide. Background: Surface plasmon resonance follows binding to a sensor surface in real time, without labels.
Assay [2] shares this target. Briefly: SPR (Biacore), immobilisation of VCAM1 not stated.

One may read the Kd as the constant that tells how readily two partners part at equilibrium. Broadly, the koff is the first-order rate constant of dissociation. A high value points to a short-lived complex. One may read the kon as the second-order rate constant of association. A low value points to slower complex formation. With QARDCTGSWTWENGKWTWKGPSICPI [Peptide 1 specific to VCAM1 (bipodal-peptide binder)], the equilibrium dissociation constant (Kd) with VCAM1-Trx (human) [1] is 318 nM. Also, in the assay with VCAM1-Trx (human) [2], the koff worked out at 0.1 s⁻¹ and the association rate constant (kon) came to 330000 M⁻¹ s⁻¹.
